Results taken from the nanobody polyreactivity screen of Harvey et al. (2022).

Assay: yeast display, Sf9 membrane polyspecificity reagent, FACS + sequencing; frameworks hold sequencing errors
In short: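 Nanobodies came from a synthetic yeast display library in Saccharomyces cerevisiae BJ5465, induced with galactose for 36–48 hours and stained for 1 hour at 4 °C with 10% biotinylated, detergent-solubilized Sf9 membrane reagent. Cells were enriched on streptavidin microbeads and then FACS-sorted, with low and high (top ~1%) gates set on anti-HA fluorescence for expression and streptavidin fluorescence for reagent binding. Each polyreactivity label reflects the gate a clone came from. Genes were amplified by colony PCR, sequenced by MiSeq 2 × 250 and filtered by CDR length.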

Sequence	polyreactivity (PSR sort gate)
QVQLVESGGGLVQAGGSLRLSCAASGSIFVHYAMGWYRQAPGKERELVAAITSSGGRTYYADSVKGRFTISRDNAKNTVYLQMNSLKPEDTAVYYCNAAKYLYRHGFLSAGDMYYWGQGTQVTVSS	high polyreactivity
QVQLVESGGGLVQAGGSLRLSCAASGLIFVTNAMGWYRQAPGKERELVAAITRSGGSTYYADSVKGRFTISRDNAKITVYLQMNSLKPEDTAVYYCATGFHYAYGYCGQGTQVTVSS	low polyreactivity
QVQLVESGGGLVQAGGSLRLSCAASGIIFFLYAMGWYRQAPGKERELVAAISSGGSTYYADSVKGRFTISRDNAKNTVYLQMNSLKPEDTAVYYCAVVGYASRYEKYYYWGQGTQVTVSS	high polyreactivity
QVQHVESRGGLVQAGGSLRLRCAASGRIFSHYAMGWYRQAPGKERELVAAITSDGSTNYADSVKGRFTISRDNAKNTVYLQMNSLKPEDTAVYYCAKYVHIPYYYYLFGSYDYWGQGSQVTVSS	low polyreactivity
QVQLVESGGGLVQAGGSLRLSCAASGSTFPSNAMGWYRQAPGKERELVAAITFRGGRTYYADSVKGRFTISRDNAKNTVYLQMNSLKPEDTAVYYCAAERWWYTVRGYGYWGQGTQVTVSS	high polyreactivity
QDQLVESGGGLVQAGGSLRLICAASGSTFDSYAMGWYRQAPGKERELVAAITRSVGSTYYADSVKGRFTISRDNAKYTVYLLMKSLKPEDTAVYYCAARGEWAIYVEFDYWGQGTQVTVSS	low polyreactivity
QVQLVESGGGLVQAGGSLRLSCADSGITFFIYAMGWYIQAPGKERELVAAISGRSGSTYYADSVKGRFTISRDNAKNTVYLQMNSLKPEDTAVYYCAAGLTFFSYSLDYWGQGTQVTVSS	low polyreactivity
QVQLVESGGGLVQAGGSLRVSCAASGNTFGGYAMGWYRQAPGKERELVAAISSSGGSTYYADSVKGRFTISRDNAKNTVYLQMNSLKPEDTAVYYCAAYGGVYGYWTMGYWGQGTQVTVSS	high polyreactivity
QVQLVESGGGLVQAGGSLRITCAASGSTFATYTIGWYRQPPGKEMELVAAISVSGSRTYADSVKGRFTISRDNAKNSVYLQMNSLKPEDTAVYYCAPRNYSVASYGEYDYWGQGTQVTVSS	high polyreactivity
QVQLVESGGGLVQAGGSLRLSCAASGSTFGENDRGWSRQEPGKERELVAAITWSGGSTYYADSVKGRFTISRDNAKNTVYLQMNSLKPEDTAVYYCAADRYWIVLYDYWGQGTQVTVSS	low polyreactivity
QVQLVDSGGGLVQAGGSLRLSCAASGYIFRVYAMGWYRQAPGKERELVAAISGSGGRTYYADSVKGRFTISRDNAKNTVYLQMNSLKPEDTAVYYCAAYRVSDYDYWGQGTQVTVSS	high polyreactivity
QVQLVESGGGLVQAGGSLRLSCADSGFTFCSYTMGWYRQAPGKERELVAAITGGGNTKYADSVKGRFTISRDNAKNTFYLQMISLKPEDSAVYYCARLSRYKSYYTSRFDYWGQGNQVTVSS	high polyreactivity
QVQLVESGGGLVQAGGSLRLSCAASGSTFYGYAQGWYRQAPRKERELVAAISRTGTTNYADSVKGRFTISRDNAKNTVYLQMNSLKPEVTAVYYCNVRGYEVWYPLAYDYWGQGTQVTVSS	high polyreactivity
QVQLVESGGGLVQAGGSLRLSCAASGSIFRPNVMGWYRQAPGKERELVAAITGSGGSTYYADSVKGRFTISRDNAKNTVYLQMNSLKPEDTAVYYCNARTVSRGRYTYDYWGQGTQVTVSS	low polyreactivity
QVQLVESGGGLVQAGGSLRLSCAASGSIFTDNSMGWYRQAPGKERELVAAIDSVGSTYYADSVKGRFTISRDNAKNTVYLQMNSLKPEDTAVYYCAADLYFPYESYYWGQGTQVTVSS	low polyreactivity
QVQLVESGGGLVQAGGSLRLSCAASGRTFRLYAMGWYRQAPGKERELVAAIRSGGSTNYADSVKGRFTISRDNEKNTVYLQMNSLKPEYTAVYYCAVDGYFFQGPYYYWGQGTQVTVSS	low polyreactivity
